Laboratory results taken from publication PMC8269367, “DNA G-Quadruplexes Contribute to CTCF Recruitment”.

Columns and labels:
[1] = target: T1, HMGB2 (Homo sapiens, UniProt P26583 1-209); experiment: MST; MST, 50 nM labelled protein, 0.61 nM-20 uM oligo, 140 mM potassium phosphate pH 7.2 (6.7 for i-motif N1-3; CTCF oligo CD at pH 6.7), 10 mM NaCl in oligo stocks, 22 C; settings: protein: commercial; tags: His; mixed-topology G4
T1 sequence: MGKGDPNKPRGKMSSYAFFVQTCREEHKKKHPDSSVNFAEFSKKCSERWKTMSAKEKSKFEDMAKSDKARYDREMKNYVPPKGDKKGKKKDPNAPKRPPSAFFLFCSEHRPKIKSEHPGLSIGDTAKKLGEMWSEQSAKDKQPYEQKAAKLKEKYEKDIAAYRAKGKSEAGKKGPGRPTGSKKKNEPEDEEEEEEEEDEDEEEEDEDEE

[2] = target: T2, HMGN1 (Homo sapiens, UniProt P05114 1-100); experiment: as above; settings: protein: commercial; tags: His; parallel G4, partly intermolecular
T2 sequence: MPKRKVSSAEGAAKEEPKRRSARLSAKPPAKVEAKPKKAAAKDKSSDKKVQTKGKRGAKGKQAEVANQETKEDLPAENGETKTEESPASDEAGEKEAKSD

[3] = target: T2, HMGN1; experiment: MST; positive control; MST, 50 nM labelled protein, 0.61 nM-20 uM oligo, 140 mM potassium phosphate pH 7.2 (6.7 for i-motif N1-3; CTCF oligo CD at pH 6.7), 10 mM NaCl in oligo stocks, 22 C; settings: protein: commercial; tags: His; parallel G4

Binder | Kd [1] [nM] | also measured
GGGCCCTGGGAACGGGGAGGG (structured_DNA) [B2-M7] | 1600 ± 600 | 
GGGGAGGGGGAGGGGGGAGGGAGGGGAGG (structured_DNA) [N1C-3 (N1-C3)] |  | Kd [2]: 200 ± 100 nM
GGGAGAGGGAGAGGGAGAGGG (structured_DNA) [B2-M6] | 4000 ± 2000 | 
GGTGACAGGGGTATGGGGAGGGG (structured_DNA) [CT1 (G4-2)] |  | Kd [3]: 1600 ± 300 nM
